We go through 1 molecule from paper PMC9388692, “Nuclear import of PTPN18 inhibits breast cancer metastasis mediated by MVP and importin β2” (Cell Death & Disease, 2022).

In assay [1] the target is T1, His-tagged MVP (UniProt Q14764 1-893).
T1 construct: MVP, His-tagged, for GST pull-down
Description: pull-down; GST pull-down with GST-tagged PTPN18 and His-tagged MVP; called a direct interaction, in vitro. The note with it: both partners purified.

The target in assay [2] is T2, His-tagged importin β2 (UniProt Q92973 1-898).
T2 construct: source: purified proteins
T2 sequence (looked up): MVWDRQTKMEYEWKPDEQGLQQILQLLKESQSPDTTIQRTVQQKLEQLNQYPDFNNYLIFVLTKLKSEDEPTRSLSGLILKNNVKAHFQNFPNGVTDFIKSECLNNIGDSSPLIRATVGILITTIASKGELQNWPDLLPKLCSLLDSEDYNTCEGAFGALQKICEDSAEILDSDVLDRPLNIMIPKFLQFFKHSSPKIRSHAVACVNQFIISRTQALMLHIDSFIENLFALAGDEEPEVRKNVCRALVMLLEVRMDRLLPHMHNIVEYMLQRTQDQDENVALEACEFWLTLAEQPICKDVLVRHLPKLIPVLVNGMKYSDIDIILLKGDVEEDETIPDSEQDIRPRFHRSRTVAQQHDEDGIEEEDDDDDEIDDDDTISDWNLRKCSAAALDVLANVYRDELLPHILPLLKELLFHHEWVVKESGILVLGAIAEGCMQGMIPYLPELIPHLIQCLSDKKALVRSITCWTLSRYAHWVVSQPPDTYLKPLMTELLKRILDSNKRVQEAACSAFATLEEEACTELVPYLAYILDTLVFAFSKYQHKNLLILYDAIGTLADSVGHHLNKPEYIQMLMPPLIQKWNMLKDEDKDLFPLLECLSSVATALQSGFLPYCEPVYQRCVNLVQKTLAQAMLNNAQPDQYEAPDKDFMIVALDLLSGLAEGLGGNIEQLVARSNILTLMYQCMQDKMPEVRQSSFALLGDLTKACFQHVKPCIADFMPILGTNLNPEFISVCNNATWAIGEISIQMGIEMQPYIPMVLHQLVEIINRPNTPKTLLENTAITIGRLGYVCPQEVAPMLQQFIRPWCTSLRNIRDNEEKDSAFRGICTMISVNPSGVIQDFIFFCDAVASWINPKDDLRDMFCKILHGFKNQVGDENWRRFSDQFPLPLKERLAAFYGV
Description: pull-down; GST pull-down of GST-tagged PTPN18 and its NLS mutants with His-tagged importin β2; purified proteins, in vitro. The note with it: both partners purified.

T1 sequence (Q14764 whole entry): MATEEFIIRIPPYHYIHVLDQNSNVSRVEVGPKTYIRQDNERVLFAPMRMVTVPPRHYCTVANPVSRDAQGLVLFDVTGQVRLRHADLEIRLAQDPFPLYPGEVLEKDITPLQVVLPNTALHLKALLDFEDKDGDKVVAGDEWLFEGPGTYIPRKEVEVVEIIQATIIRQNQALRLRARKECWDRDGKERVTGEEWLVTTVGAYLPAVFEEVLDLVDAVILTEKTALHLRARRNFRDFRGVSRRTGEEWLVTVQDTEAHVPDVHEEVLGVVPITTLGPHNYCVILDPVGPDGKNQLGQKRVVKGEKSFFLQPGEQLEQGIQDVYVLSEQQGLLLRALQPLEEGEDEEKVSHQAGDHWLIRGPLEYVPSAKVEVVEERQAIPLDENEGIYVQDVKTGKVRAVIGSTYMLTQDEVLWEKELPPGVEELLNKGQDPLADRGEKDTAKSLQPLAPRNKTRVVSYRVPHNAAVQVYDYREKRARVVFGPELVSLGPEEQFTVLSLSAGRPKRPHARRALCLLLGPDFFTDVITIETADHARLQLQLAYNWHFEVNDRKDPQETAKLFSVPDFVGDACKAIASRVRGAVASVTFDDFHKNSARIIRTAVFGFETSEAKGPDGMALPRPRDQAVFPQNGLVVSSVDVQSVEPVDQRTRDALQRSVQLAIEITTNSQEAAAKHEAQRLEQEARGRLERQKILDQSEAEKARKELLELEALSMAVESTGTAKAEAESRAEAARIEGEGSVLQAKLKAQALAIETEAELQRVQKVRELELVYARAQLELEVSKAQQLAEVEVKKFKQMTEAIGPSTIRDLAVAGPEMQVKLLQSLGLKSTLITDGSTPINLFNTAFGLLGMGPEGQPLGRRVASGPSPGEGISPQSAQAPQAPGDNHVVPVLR

B1: GST-tagged PTPN18 (natural protein, UniProt Q99952 1-460, looked up)
chain: MSRSLDSARSFLERLEARGGREGAVLAGEFSDIQACSAAWKADGVCSTVAGSRPENVRKNRYKDVLPYDQTRVILSLLQEEGHSDYINGNFIRGVDGSLAYIATQGPLPHTLLDFWRLVWEFGVKVILMACREIENGRKRCERYWAQEQEPLQTGLFCITLIKEKWLNEDIMLRTLKVTFQKESRSVYQLQYMSWPDRGVPSSPDHMLAMVEEARRLQGSGPEPLCVHCSAGCGRTGVLCTVDYVRQLLLTQMIPPDFSLFDVVLKMRKQRPAAVQTEEQYRFLYHTVAQMFCSTLQNASPHYQNIKENCAPLYDDALFLRTPQALLAIPRPPGGVLRSISVPGSPGHAMADTYAVVQKRGAPAGAGSGTQTGTGTGTGARSAEEAPLYSKVTPRAQRPGAHAEDARGTLPGRVPADQSPAGSGAYEDVAGGAQTGGLGFNLRIGRPKGPRDPPAEWTRV
notes: PTPN18 wild type, GST-tagged, for GST pull-down; also called PTPN18 WT; source: purified proteins
On to B1, for which the binding result in assay [1] and in assay [2] was “binds” throughout.
